Target: one CLL cell line
Assay: avidity constant derived from LD50 of complement dependent cytotoxicity on CLL cells

Substance: Lym-1 antibody
- avidity: 1.1e+08
